Literature values as cited in publication PMC10172704 (Poultry Science, 2023).
Like-named read-outs stand apart in the source and are kept apart here.

How the values were obtained:
Escherichia coli = details: ref Wang et al., 2020
Staphylococcus aureus = details: ref Wang et al., 2020

B1: Milk lactoferrin: milk lactoferrin; literature MICs, also after proteolytic digestion by pepsin (protein, UniProt P02788 20-710, looked up)
Lactotransferrin: GRRRSVQWCAVSQPEATKCFQWQRNMRKVRGPPVSCIKRDSPIQCIQAIAENRADAVTLDGGFIYEAGLAPYKLRPVAAEVYGTERQPRTHYYAVAVVKKGGSFQLNELQGLKSCHTGLRRTAGWNVPIGTLRPFLNWTGPPEPIEAAVARFFSASCVPGADKGQFPNLCRLCAGTGENKCAFSSQEPYFSYSGAFKCLRDGAGDVAFIRESTVFEDLSDEAERDEYELLCPDNTRKPVDKFKDCHLARVPSHAVVARSVNGKEDAIWNLLRQAQEKFGKDKSPKFQLFGSPSGQKDLLFKDSAIGFSRVPPRIDSGLYLGSGYFTAIQNLRKSEEEVAARRARVVWCAVGEQELRKCNQWSGLSEGSVTCSSASTTEDCIALVLKGEADAMSLDGGYVYTAGKCGLVPVLAENYKSQQSSDPDPNCVDRPVEGYLAVAVVRRSDTSLTWNSVKGKKSCHTAVDRTAGWNIPMGLLFNQTGSCKFDEYFSQSCAPGSDPRSNLCALCIGDEQGENKCVPNSNERYYGYTGAFRCLAENAGDVAFVKDVTVLQNTDGNNNEAWAKDLKLADFALLCLDGKRKPVTEARSCHLAMAPNHAVVSRMDKVERLKQVLLHQQAKFGRNGSDCPDKFCLFQSETKNLLFNDNTECLARLHGKTTYEKYLGPQYVAGITNLKKCSTSPLLEACEFLRK
Escherichia coli; after proteolytic digestion by pepsin
  MIC: 65 mg/mL
Escherichia coli
  MIC: 130 mg/mL
Staphylococcus aureus
  MIC: 260 mg/mL
